What was measured:
[1] = SE-HPLC, physical stability after freeze/thaw and shaking; type: physicochemical; conditions: physical stability study
Procedure: Physical stability was measured after a Freeze/Thaw (F/T) cycle in which ADC products are frozen at least 2 hours at −20° C. and thawed at least 1 hour at room temperature three times and tested 24 h after the last Freeze/Thaw cycle, and after shaking in which ADC products samples are shaken with a “vortex” 3 min at 3000 rpm and tested 24 h after this shaking stress application. […] Measurements were also made by SE-HPLC, performed with the Acquity UPLC from WATERS® with a BEH200 SEC 1.7 μm column. SE-HPLC is used to evaluate soluble and covalent/non-covalent aggregates levels and the proteic fragments that could be generated.

[2] = SE-HPLC, chemical stability on storage; type: physicochemical
Procedure: A chemical stability study monitored the molecular integrity of the ADC products that could be impacted following 3 months storage at +40° C. (thermal stress accelerated degradation storage conditions). Samples stored at +40° C. were compared to samples stored at +5° C., as assessed by SE-HPLC, performed with the Acquity UPLC from WATERS® with a BEH200 SEC 1.7 μm column.

ADCETRIS ®
fragments, in words [1]: significant levels of fragments
fragments, in words ([2]; chemical stability at 5° C.): significant levels of fragments
Fragments % ([2]; storage at 5° C., T1 W (1 week)): 1.77%

Source: patent US9427478B2, “Enzymatic conjugation of polypeptides” (Innate Pharma, priority 2013, dated 2016)
